The results in this text go back to PMC3616739.

Usually Kd stands for the free concentration of one partner at which half of the binding sites on the other are occupied at equilibrium, for simple one-to-one binding.

This data set deals with GST-LEDGF PWWP (UniProt O75475 1-100). Description: EMSA. (In general: A gel shift assay detects complexes by their altered migration in electrophoresis.)
Sequence of GST-LEDGF PWWP (O75475 1-100): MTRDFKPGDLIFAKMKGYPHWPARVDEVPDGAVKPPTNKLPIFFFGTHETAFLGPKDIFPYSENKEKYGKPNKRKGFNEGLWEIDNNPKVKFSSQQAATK

B1: SMYD1 DNA 40 bp (dsDNA)
DNA 1: CAGGCTGGTCTTGAACTCCTGACCTCAGATGATCCATGTG
DNA 2: CACATGGATCATCTGAGGTCAGGAGTTCAAGACCAGCCTG
In turn, B1 had a Kd of around 1500 nM.

B2: non-specific DNA 40 bp (dsDNA)
DNA 1: CTGCAGAAGCTTGGTGCCGGGGCCGCTCAATTGGTCGTAG
DNA 2: CTACGACCAATTGAGCGGCCCCGGCACCAAGCTTCTGCAG
In turn, B2 had a Kd of around 1500 nM.
